Measured values reported in the supplement of paper PMC9112550, “Optimization of the antimicrobial peptide Bac7 by deep mutational scanning” (BMC Biology, 2022).

Tested on: Escherichia coli TOP10
Assay: shrunken log2 fold change of peptide-encoding DNA abundance (4.5 h post-induction vs induction); higher = less antimicrobial activity (less host growth inhibition)
Settings: time post-induction: 4.5 h; library: site-saturation at positions 5, 18, 19, 20
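Note: peptides expressed intracellularly from a pBAD plasmid library in pooled LB shake-flask culture, induced with 0.3% L-arabinose, DNA abundance read by NGS, three biological replicates, DESeq2 with apeglm shrinkage.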

Sequence | shrunken log2 fold change
RRIRDRPPRLPRPRPRPTVRPRP | 0.0184
RRIRFRPPRLPRPRPRPGYCPRP | -0.321
RRIRIRPPRLPRPRPRPLDPPRP | -0.0309
RRIRFRPPRLPRPRPRPAGTPRP | -0.0142
RRIRQRPPRLPRPRPRPAAIPRP | 0.111
RRIRIRPPRLPRPRPRPVIGPRP | -0.727
RRIRIRPPRLPRPRPRPPADPRP | 0.271
RRIRDRPPRLPRPRPRPRYRPRP | -0.101
RRIRQRPPRLPRPRPRPHGFPRP | -0.0134
RRIRYRPPRLPRPRPRPTRKPRP | 0.00746
RRIRRRPPRLPRPRPRPHPRPRP | 1.03
RRIRKRPPRLPRPRPRPVPEPRP | 0.151
RRIRFRPPRLPRPRPRPQDFPRP | -0.143
RRIRPRPPRLPRPRPRPGQYPRP | 0.0431
RRIRMRPPRLPRPRPRPWGWPRP | 1.08
RRIRYRPPRLPRPRPRPFTHPRP | -0.187
RRIRERPPRLPRPRPRPMTIPRP | -0.155
RRIRHRPPRLPRPRPRPSYFPRP | -0.628
RRIRQRPPRLPRPRPRPPAPPRP | 0.399
RRIRSRPPRLPRPRPRPGGAPRP | 0.574
RRIRGRPPRLPRPRPRPGARPRP | 0.953
RRIRRRPPRLPRPRPRPFPGPRP | -0.143
RRIRARPPRLPRPRPRPNSHPRP | -0.248

Sequence | shrunken log2 fold change
RRIRTRPPRLPRPRPRPPDLPRP | 0.243
RRIRTRPPRLPRPRPRPIYPPRP | -0.243
RRIRHRPPRLPRPRPRPGGEPRP | 0.183
RRIRKRPPRLPRPRPRPEACPRP | 0.0762
RRIRCRPPRLPRPRPRPASNPRP | -0.342
RRIRKRPPRLPRPRPRPCIGPRP | 0.0382
RRIRLRPPRLPRPRPRPAIWPRP | 0.016
RRIRERPPRLPRPRPRPARCPRP | 0.114
RRIRDRPPRLPRPRPRPIYSPRP | -0.15
RRIRCRPPRLPRPRPRPQTHPRP | 0.0541
RRIRVRPPRLPRPRPRPCMYPRP | -0.387
RRIRRRPPRLPRPRPRPYGMPRP | -0.242
RRIRFRPPRLPRPRPRPTGRPRP | 0.131
RRIRQRPPRLPRPRPRPRQIPRP | 0.0413
RRIRRRPPRLPRPRPRPLYVPRP | -0.379
RRIRVRPPRLPRPRPRPKECPRP | -0.0265
RRIRERPPRLPRPRPRPKHWPRP | 0.0518
RRIRTRPPRLPRPRPRPMSNPRP | -0.535
RRIRCRPPRLPRPRPRPHLAPRP | -0.0147
RRIRIRPPRLPRPRPRPVSGPRP | 0.0231
RRIRQRPPRLPRPRPRPHMEPRP | -0.172
RRIRLRPPRLPRPRPRPPSYPRP | 0.119
RRIRWRPPRLPRPRPRPGINPRP | 0.0653

Sequence | shrunken log2 fold change
RRIRNRPPRLPRPRPRPMIKPRP | -0.456
RRIRRRPPRLPRPRPRPPNGPRP | 0.407
RRIRSRPPRLPRPRPRPCVHPRP | -0.471
RRIRERPPRLPRPRPRPHAAPRP | -0.0217
RRIRLRPPRLPRPRPRPQREPRP | 0.144
RRIRRRPPRLPRPRPRPNEHPRP | -0.118
RRIRYRPPRLPRPRPRPCKQPRP | 0.00515
RRIRRRPPRLPRPRPRPHVDPRP | 0.027
RRIRARPPRLPRPRPRPFFFPRP | 0.419
RRIRNRPPRLPRPRPRPKLCPRP | 0.163
RRIRTRPPRLPRPRPRPNFLPRP | 0.998
RRIRGRPPRLPRPRPRPFEFPRP | -0.157
RRIRQRPPRLPRPRPRPLCGPRP | 0.0478
RRIRYRPPRLPRPRPRPIRNPRP | -1.17
RRIRYRPPRLPRPRPRPVEFPRP | -1.06
RRIRCRPPRLPRPRPRPMAKPRP | -0.0415
RRIRTRPPRLPRPRPRPTTDPRP | -0.0867
RRIRLRPPRLPRPRPRPVFQPRP | 0.042
RRIRQRPPRLPRPRPRPRFGPRP | 0.198
RRIRSRPPRLPRPRPRPERAPRP | 0.399
RRIRRRPPRLPRPRPRPHDEPRP | 0.18
RRIRIRPPRLPRPRPRPIMKPRP | -0.227
RRIRPRPPRLPRPRPRPCWGPRP | -0.0769

Sequence | shrunken log2 fold change
RRIRARPPRLPRPRPRPDWSPRP | 0.048
RRIRRRPPRLPRPRPRPRDHPRP | 0.397
RRIRHRPPRLPRPRPRPFIYPRP | -0.831
RRIRCRPPRLPRPRPRPYCTPRP | -0.503
RRIRFRPPRLPRPRPRPPPSPRP | 1.35
RRIRLRPPRLPRPRPRPHEDPRP | -0.682
RRIRQRPPRLPRPRPRPFWRPRP | -0.044
RRIRQRPPRLPRPRPRPSCFPRP | -0.529
RRIRQRPPRLPRPRPRPVVDPRP | -0.355
RRIRTRPPRLPRPRPRPLVIPRP | -0.44
RRIRTRPPRLPRPRPRPVRYPRP | -0.028
RRIRIRPPRLPRPRPRPWANPRP | -0.0688
RRIRDRPPRLPRPRPRPVSVPRP | -0.0329
RRIRIRPPRLPRPRPRPIIIPRP | -0.598
RRIRSRPPRLPRPRPRPTSTPRP | -0.236
RRIRDRPPRLPRPRPRPGRMPRP | 0.174
RRIRNRPPRLPRPRPRPFACPRP | 0.0153
RRIRARPPRLPRPRPRPLNFPRP | -0.249
RRIRLRPPRLPRPRPRPMVPPRP | 0.096
RRIRNRPPRLPRPRPRPWKEPRP | -0.59
RRIRGRPPRLPRPRPRPGGIPRP | 0.402
RRIRCRPPRLPRPRPRPHIVPRP | -0.325
